In test [1] the target is T1, prestin (Meriones unguiculatus, UniProt Q9JKQ2).
T1 sequence (Q9JKQ2 1-744): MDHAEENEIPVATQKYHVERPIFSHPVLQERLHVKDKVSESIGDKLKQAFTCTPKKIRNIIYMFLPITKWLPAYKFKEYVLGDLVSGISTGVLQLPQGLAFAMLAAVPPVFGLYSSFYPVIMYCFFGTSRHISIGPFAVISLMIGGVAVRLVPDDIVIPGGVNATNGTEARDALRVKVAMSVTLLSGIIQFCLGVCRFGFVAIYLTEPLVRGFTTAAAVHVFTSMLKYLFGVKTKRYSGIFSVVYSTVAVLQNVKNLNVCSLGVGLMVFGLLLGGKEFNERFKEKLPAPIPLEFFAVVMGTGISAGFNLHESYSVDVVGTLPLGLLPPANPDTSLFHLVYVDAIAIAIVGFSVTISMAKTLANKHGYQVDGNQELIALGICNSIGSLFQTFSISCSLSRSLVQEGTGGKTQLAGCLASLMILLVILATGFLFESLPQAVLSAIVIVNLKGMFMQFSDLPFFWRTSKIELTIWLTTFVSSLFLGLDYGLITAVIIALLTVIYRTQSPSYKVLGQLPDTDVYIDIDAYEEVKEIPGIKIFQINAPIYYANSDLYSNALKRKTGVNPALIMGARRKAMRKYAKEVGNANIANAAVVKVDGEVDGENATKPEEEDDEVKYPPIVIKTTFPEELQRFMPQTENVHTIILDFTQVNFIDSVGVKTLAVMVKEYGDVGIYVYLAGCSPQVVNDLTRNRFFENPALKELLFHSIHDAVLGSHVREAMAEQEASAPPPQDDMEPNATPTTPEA
Experimental: (§1) TSA201 cells, clones of human embryonic kidney 293 cells that express the simian virus 40 (SV40) large T-antigen in a stable manner, were cultured in DMEM with 5% fetal calf serum, 100 units of penicillin per millilter, and 100 micrograms of streptomycin per milliliters. Cells were plated for 24 hours before calcium phosphate transfection. The transfection reaction mixture contained:
(§2) a) control plasmid, pcDNA3.1; b) 2 micrograms of Pres cDNA plasmid; c) 2 micrograms of Pres cDNA plasmid plus 0.2 micrograms of green fluorescent protein (GFP) plasmid as transfection marker; or d) 2 micrograms of pendrin cDNA plasmid plus 0.2 micrograms GFP plasmid.
(§3) After 24 hours the transfected cells were used for electrophysiological and physical measurements.
Whole-cell voltage-clamp recordings were made with an Axopatch™ 200B amplifier (Axon Instruments, Foster City, Calif.) Recording pipettes had open tip resistances of 2-3 megaohms and were filled with internal solution containing 140 millimolar CsCl, 2 millimolar MgCl2, 10 millimolar EGTA, and 10 millimolar HEPES at pH 7.2. The external solution contained: 120 millimolar NaCl, 20 millimolar TEA-Cl, 2 millimolar CoCl2, 2 millimolar MgCl2, 10 millimolar HEPES, and 5 millimolar glucose at pH 7.2. Osmolarity was adjusted to 300 milliosmolar per liter with glucose. Capacitive currents were filtered at 5 kilohertz and digitized at 50 kilohertz using pClamp 7.0 software (Axon Instruments).
Voltage-dependent capacitance was measured using two methods. First, a standard P/4 linear subtraction procedure was employed to detect the presence of nonlinear charge movement. After nonlinear transient current was detected, a stair-step voltage protocol was used to obtain the parameters of charge movement. For each voltage step, the measured membrane capacitance (Cm) was plotted as a function of membfane voltage (Vm) and fitted with the derivative of a Boltzmann function: [formula] […]

In test [2] the target is T1, prestin. The note with it: 10 millimolar in external bathing solution, FIG. 6C.
Experimental: as §1, §2, §3
TSA201 cells were drawn into a microchamber with gentle suction (FIG. 6A). The microchamber was mounted on a three-dimensional micromanipulator attached to the stage of a Zeiss inverted microscope. […] The command voltage, delivered between the electrolyte solutions (L15, Gibco BRL) surrounding and filling the microchamber, produces different voltage drops on the included and excluded cell membrane segments, determined by the electrical voltage-divider effect of these membranes. During motility measurements, the location of the cell within the slit was monitored via a video camera placed behind the slit. […]
Test [3] deals with TSA201 cells. Description: Electromotility conveyed to transfected TSA201 cells (microchamber). Format: cell-based, human. To be noted: cells drawn into microchamber, 200 Hertz sinusoid. An excerpt:
A change of photocurrent signified cell extension or contraction.

The subject of test [4] is TSA201 cells. Description: Nonlinear capacitance / charge movement conveyed to transiently transfected TSA201 cells. Format: cell-based, human. More on the design: average charge density: unit not given here. To be noted: for nonlinear capacitance: co-transfected with GFP. The procedure: The transfection reaction mixture contained:
Voltage-dependent capacitance was measured using two methods.
To test the sensor-motor function of prestin, voltage-dependent charge movement was measured in TSA201 cells after transient transfection of unmodified, native Pres cDNA. A second plasmid (pEGFP-N2) containing GFP cDNA was used as an independent marker for successful transfection of the cells. Transfection efficiency was 30-40% as judged from the fluorescence of GFP in transfected cells. […] In experiments conducted on cells co-transfected with prestin and GFP cDNA, transient capacitive currents were obtained from 91.8% of the GFP positive cells. […] The capacitive currents were directed towards the outside as the membrane potential was depolarized and toward the inside as it was hyperpolarized. Charges transferred at command onset and offset were approximately equal. The decay of transient currents was rapid (100-200 microseconds) and could be well-fitted with a single exponential. The voltage protocol used to estimate membrane capacitance and charge transfer across the membrane was an ascending stair-step voltage waveform (FIG. 5B). The membrane capacitance was fitted to the derivative of a first-order Boltzmann equation (FIG. 5C). In a group of seven cells, these curve-fits yielded values of Qmax=1.76±0.20 pC, V1/2=−57.30 ±2.98 mV, 1/a˜=kT/ze=28.00±2.13 mV, and Clin=20.50±2.65 pF, respectively (mean±SEM). The valence can be calculated from a, z=0.91. The average charge density, a possible measure of transiently transfected motor protein density in TSA201 cells, was […]. The numerical values that characterize the charge movement (V1/2, z) are quite similar to those obtained for OHCs. The maximum charge and charge density are less in the transfected cells, even though the linear capacitance is about the same as that of an average OHC. […]

Setting [5] is: Boltzmann fit, seven cells, mean±SEM.

With `O=C([O-])c1ccccc1O.[Na+]` [Sodium salicylate, sodium salicylate], the “effect on charge movement” value in test [1] is listed as “reversibly blocks charge movement”. The “transient currents after recovery, % of control” value in test [1] (3 cells, after 2-5 minutes of washing in normal extracellular solution without sodium salicylate) is 88.4±8.8 % of control. In addition, the “transient currents, % of control” value in test [1] (10 millimolar sodium salicylate applied locally, mean±SEM) was 15.5±2.9 % of control. The “effect on electromotile response” value in test [2] was “reversible decrease in the electromotile response”.

B1: prestin: gerbil outer hair cell motor protein, 744 amino acids, 81.4 kiloDaltons, SEQ ID NO:1, expressed from Pres cDNA (protein, listed as Meriones unguiculatus)
chain: MDHAEENEIPVATQKYHVERPIFSHPVLQERLHVKDKVSESIGDKLKQAFTCTPKKIRNIIYMFLPITKWLPAYKFKEYVLGDLVSGISTGVLQLPQGLAFAMLAAVPPVFGLYSSFYPVIMYCFFGTSRHISIGPFAVISLMIGGVAVRLVPDDIVIPGGVNATNGTEARDALRVKVAMSVTLLSGIIQFCLGVCRFGFVAIYLTEPLVRGFTTAAAVHVFTSMLKYLFGVKTKRYSGIFSVVYSTVAVLQNVKNLNVCSLGVGLMVFGLLLGGKEFNERFKEKLPAPIPLEFFAVVMGTGISAGFNLHESYSVDVVGTLPLGLLPPANPDTSLFHLVYVDAIAIAIVGFSVTISMAKTLANKHGYQVDGNQELIALGICNSIGSLFQTFSISCSLSRSLVQEGTGGKTQLAGCLASLMILLVILATGFLFESLPQAVLSAIVIVNLKGMFMQFSDLPFFWRTSKIELTIWLTTFVSSLFLGLDYGLITAVIIALLTVIYRTQSPSYKVLGQLPDTDVYIDIDAYEEVKEIPGIKIFQINAPIYYANSDLYSNALKRKTGVNPALIMGARRKAMRKYAKEVGNANIANAAVVKVDGEVDGENATKPEEEDDEVKYPPIVIKTTFPEELQRFMPQTENVHTIILDFTQVNFIDSVGVKTLAVMVKEYGDVGIYVYLAGCSPQVVNDLTRNRFFENPALKELLFHSIHDAVLGSHVREAMAEQEASAPPPQDDMEPNATPTTPEA
For B1, the “cells tested showing electromotility” value in test [3] is listed as “about 22%”. Further, in test [4] (setting [5]), the “1/a = kT/ze, slope factor” value was found to be 28.00±2.13 mV; the “Qmax, maximum charge transfer” value was determined as 1.76±0.20 pC; the “V1/2, voltage at which the maximum charge is equally distributed” value is −57.30 ±2.98 mV. For the same molecule, the valence z in test [4] (calculated from a) is reported as 0.91. In test [4] (cells transfected with Pres alone), the “cells displaying transient capacitive currents” value was determined as 36.8%. For the same molecule, in test [4] (co-transfected with prestin and GFP cDNA), the “GFP positive cells displaying transient capacitive currents” value is 91.8%. Moreover, in test [4] (single exponential), the “decay of transient currents” value was 100-200 microseconds. For the same molecule, in test [4] (transiently transfected TSA201 cells), the average charge density turned out to be 5360.

B2: N-tagged prestin: full-length prestin with an Xpress epitope located upstream and in-frame (protein, UniProt P58743 1-744, looked up)
chain: MDHAEENEILAATQRYYVERPIFSHPVLQERLHTKDKVPDSIADKLKQAFTCTPKKIRNIIYMFLPITKWLPAYKFKEYVLGDLVSGISTGVLQLPQGLAFAMLAAVPPIFGLYSSFYPVIMYCFLGTSRHISIGPFAVISLMIGGVAVRLVPDDIVIPGGVNATNGTEARDALRVKVAMSVTLLSGIIQFCLGVCRFGFVAIYLTEPLVRGFTTAAAVHVFTSMLKYLFGVKTKRYSGIFSVVYSTVAVLQNVKNLNVCSLGVGLMVFGLLLGGKEFNERFKEKLPAPIPLEFFAVVMGTGISAGFNLKESYNVDVVGTLPLGLLPPANPDTSLFHLVYVDAIAIAIVGFSVTISMAKTLANKHGYQVDGNQELIALGLCNSIGSLFQTFSISCSLSRSLVQEGTGGKTQLAGCLASLMILLVILATGFLFESLPQAVLSAIVIVNLKGMFMQFSDLPFFWRTSKIELTIWLTTFVSSLFLGLDYGLITAVIIALLTVIYRTQSPSYKVLGKLPETDVYIDIDAYEEVKEIPGIKIFQINAPIYYANSDLYSNALKRKTGVNPAVIMGARRKAMRKYAKEVGNANMANATVVKADAEVDGEDATKPEEEDGEVKYPPIVIKSTFPEEMQRFMPPGDNVHTVILDFTQVNFIDSVGVKTLAGIVKEYGDVGIYVYLAGCSAQVVNDLTRNRFFENPALWELLFHSIHDAVLGSQLREALAEQEASAPPSQEDLEPNATPATPEA
modifications: full-length N-terminal Xpress tag
For B2, the “nonlinear capacitance” value in test [4] is on record as “typical nonlinear capacitance curve is observed”.

B3: C-tagged prestin: full-length prestin tagged at the C-terminus with a V5 epitope (protein, UniProt P58743 1-744, looked up)
chain: MDHAEENEILAATQRYYVERPIFSHPVLQERLHTKDKVPDSIADKLKQAFTCTPKKIRNIIYMFLPITKWLPAYKFKEYVLGDLVSGISTGVLQLPQGLAFAMLAAVPPIFGLYSSFYPVIMYCFLGTSRHISIGPFAVISLMIGGVAVRLVPDDIVIPGGVNATNGTEARDALRVKVAMSVTLLSGIIQFCLGVCRFGFVAIYLTEPLVRGFTTAAAVHVFTSMLKYLFGVKTKRYSGIFSVVYSTVAVLQNVKNLNVCSLGVGLMVFGLLLGGKEFNERFKEKLPAPIPLEFFAVVMGTGISAGFNLKESYNVDVVGTLPLGLLPPANPDTSLFHLVYVDAIAIAIVGFSVTISMAKTLANKHGYQVDGNQELIALGLCNSIGSLFQTFSISCSLSRSLVQEGTGGKTQLAGCLASLMILLVILATGFLFESLPQAVLSAIVIVNLKGMFMQFSDLPFFWRTSKIELTIWLTTFVSSLFLGLDYGLITAVIIALLTVIYRTQSPSYKVLGKLPETDVYIDIDAYEEVKEIPGIKIFQINAPIYYANSDLYSNALKRKTGVNPAVIMGARRKAMRKYAKEVGNANMANATVVKADAEVDGEDATKPEEEDGEVKYPPIVIKSTFPEEMQRFMPPGDNVHTVILDFTQVNFIDSVGVKTLAGIVKEYGDVGIYVYLAGCSAQVVNDLTRNRFFENPALWELLFHSIHDAVLGSQLREALAEQEASAPPSQEDLEPNATPATPEA
modifications: full-length C-terminal V5 tag
Regarding B3, in test [4], the “nonlinear capacitance” value is “typical nonlinear capacitance curve is observed”.

B4: human pendrin: chloride-iodide transport protein homologous to prestin, expressed from cDNA as specificity control (protein, UniProt O43511 1-780, looked up)
Pendrin: MAAPGGRSEPPQLPEYSCSYMVSRPVYSELAFQQQHERRLQERKTLRESLAKCCSCSRKRAFGVLKTLVPILEWLPKYRVKEWLLSDVISGVSTGLVATLQGMAYALLAAVPVGYGLYSAFFPILTYFIFGTSRHISVGPFPVVSLMVGSVVLSMAPDEHFLVSSSNGTVLNTTMIDTAARDTARVLIASALTLLVGIIQLIFGGLQIGFIVRYLADPLVGGFTTAAAFQVLVSQLKIVLNVSTKNYNGVLSIIYTLVEIFQNIGDTNLADFTAGLLTIVVCMAVKELNDRFRHKIPVPIPIEVIVTIIATAISYGANLEKNYNAGIVKSIPRGFLPPELPPVSLFSEMLAASFSIAVVAYAIAVSVGKVYATKYDYTIDGNQEFIAFGISNIFSGFFSCFVATTALSRTAVQESTGGKTQVAGIISAAIVMIAILALGKLLEPLQKSVLAAVVIANLKGMFMQLCDIPRLWRQNKIDAVIWVFTCIVSIILGLDLGLLAGLIFGLLTVVLRVQFPSWNGLGSIPSTDIYKSTKNYKNIEEPQGVKILRFSSPIFYGNVDGFKKCIKSTVGFDAIRVYNKRLKALRKIQKLIKSGQLRATKNGIISDAVSTNNAFEPDEDIEDLEELDIPTKEIEIQVDWNSELPVKVNVPKVPIHSLVLDCGAISFLDVVGVRSLRVIVKEFQRIDVNVYFASLQDYVIEKLEQCGFFDDNIRKDTFFLTVHDAILYLQNQVKSQEGQGSILETITLIQDCKDTLELIETELTEEELDVQDEAMRTLAS
B4: the “nonlinear capacitance” value in test [4] was “None of the GFP-positive cells demonstrated nonlinear capacitance”.
